{
  "source": "paper PMC8260561",
  "about": "(Cell Reports, 2021)",
  "target": "S1-mFc (SARS-CoV-2 S1 subunit, fusion protein with murine Fc part) (SARS-CoV-2 Wuhan-Hu-1 (MN908947), UniProt P0DTC2)",
  "assay": "ELISA",
  "data": [
    {"binder": "STE90-C11 IgG (human IgG1 with silenced Fc) (antibody, V domains shown) VH: QVQLVESGGGLVQPGGSLRLSCAASGLTVSSNYMSWVRQAPGKGLEWVSVIYSGGSTYYADSVKGRFTISRDDSKNTLYLQMNSLRAEDTAVYYCARDVADAFDIWGQGTMVTVSS VL: DIVMTQSPSFLSASVGDRVTITCRASQGISSYLAWYQQKPGKAPKLLIYAASTLQSGVPSRFSGSGSGTEFTLTISSLQPEDFATYYCQQLNSYPPFTFGPGTKVDIK", "values": [
      {"measurement": "EC50", "result": 0.2, "unit": "nM"}
    ]}
  ]
}
